In paper doi:10.1101/2024.11.22.624870:

Molecular target: camel APN (aminopeptidase N) (camel)

hCoV/229E-inf1 spike protein (S) (from UniProt P15423 16-1173) (natural protein)
pseudovirus entry, percentage of usage (min-max scaled), without hTMPRSS2: 3%
